The text below walks through data of publication PMC5170556 (Molecular Biology of the Cell, 2016).

B1: Kar9C (residues 429–644) (domain or fragment, S. cerevisiae, UniProt P32526 429-644, looked up)
chain: SVIGTITQDFQERVAINEGDSNKTPENSTTVALKGKKLGKALLQKMNIKPATSPNSSNAINPFFDPESPNKGKLILSSVPPLPYDETDETTLRVSRGENEKSPDSFITSRHENKVQITETPLMAKNKSVLDIEKDKWNHYRSLPSRIPIYKDKVVKVTVENTPIAKVFQTPPTKITTPNSQVWVPSTRRRTRLRPPTPLSQLLSPREGRLDKTPTY
B2: Kar9C-Site2mut (domain or fragment, S. cerevisiae, UniProt P32526 429-644, looked up)
chain: SVIGTITQDFQERVAINEGDSNKTPENSTTVALKGKKLGKALLQKMNIKPATSPNSSNAINPFFDPESPNKGKLILSSVPPLPYDETDETTLRVSRGENEKSPDSFITSRHENKVQITETPLMAKNKSVLDIEKDKWNHYRSLPSRNNIYKDKVVKVTVENTPIAKVFQTPPTKITTPNSQVWVPSTRRRTRLRPPTPLSQLLSPREGRLDKTPTY
B7: C-terminal domain of Bim1 (residues 194–344) (domain or fragment, S. cerevisiae, UniProt P40013 194-344, looked up)
chain: ETIGSLNEEIEQYKGTVSTLEIEREFYFNKLRDIEILVHTTQDLINEGVYKFNDETITGHGNGNGGALLRFVKKVESILYATAEGFEMNDGEDELNDKNLGEHGTVPNQGGYANSNGEVNGNEGSNHDVIMQNDEGEVGVSNNLIIDEETF

Data set [1] has as its target Kar9 (full-length) (S. cerevisiae) (UniProt P32526). The data set can be described thus: SEC-MALS.
Data set [2] concerns the target Kar9N (residues 1–429) (S. cerevisiae) (UniProt P32526). Description: SEC-MALS. On the technique in general: In gel filtration, larger molecules generally elute earlier.
The target of data set [3] is B7. The data set can be described thus: ITC. For orientation: In ITC the heat of successive injections is recorded.
Data set [4] has as its target T1, Kar9-GFP (S. cerevisiae, UniProt P32526 1-644).
T1 sequence (looked up): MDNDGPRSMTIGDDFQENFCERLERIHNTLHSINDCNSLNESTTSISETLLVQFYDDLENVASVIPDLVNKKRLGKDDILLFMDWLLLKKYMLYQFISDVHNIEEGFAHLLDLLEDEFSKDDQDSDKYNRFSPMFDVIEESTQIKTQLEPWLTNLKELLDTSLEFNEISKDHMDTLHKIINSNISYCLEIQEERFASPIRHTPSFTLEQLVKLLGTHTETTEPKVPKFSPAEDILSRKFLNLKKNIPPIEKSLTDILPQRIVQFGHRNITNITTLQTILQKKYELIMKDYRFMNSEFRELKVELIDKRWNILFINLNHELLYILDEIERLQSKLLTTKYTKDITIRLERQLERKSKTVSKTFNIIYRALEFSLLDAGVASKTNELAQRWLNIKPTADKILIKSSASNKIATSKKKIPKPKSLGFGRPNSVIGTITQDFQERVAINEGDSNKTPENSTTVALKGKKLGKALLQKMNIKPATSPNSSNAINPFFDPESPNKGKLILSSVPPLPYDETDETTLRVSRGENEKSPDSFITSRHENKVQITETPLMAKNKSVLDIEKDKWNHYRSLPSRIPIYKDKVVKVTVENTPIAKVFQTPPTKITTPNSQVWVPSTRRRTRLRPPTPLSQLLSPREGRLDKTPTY
Description: in vitro microtubule-tip tracking reconstitution.

Data set [5] concerns the molecule itself. Description: SEC-MALS.
Data set [6] concerns the molecule itself. The data set can be described thus: AUC.
In data set [7] the target is T2, Kar9N-Site1 (first 570 N-terminal residues of Kar9) (S. cerevisiae, UniProt P32526 1-570).
T2 sequence (looked up): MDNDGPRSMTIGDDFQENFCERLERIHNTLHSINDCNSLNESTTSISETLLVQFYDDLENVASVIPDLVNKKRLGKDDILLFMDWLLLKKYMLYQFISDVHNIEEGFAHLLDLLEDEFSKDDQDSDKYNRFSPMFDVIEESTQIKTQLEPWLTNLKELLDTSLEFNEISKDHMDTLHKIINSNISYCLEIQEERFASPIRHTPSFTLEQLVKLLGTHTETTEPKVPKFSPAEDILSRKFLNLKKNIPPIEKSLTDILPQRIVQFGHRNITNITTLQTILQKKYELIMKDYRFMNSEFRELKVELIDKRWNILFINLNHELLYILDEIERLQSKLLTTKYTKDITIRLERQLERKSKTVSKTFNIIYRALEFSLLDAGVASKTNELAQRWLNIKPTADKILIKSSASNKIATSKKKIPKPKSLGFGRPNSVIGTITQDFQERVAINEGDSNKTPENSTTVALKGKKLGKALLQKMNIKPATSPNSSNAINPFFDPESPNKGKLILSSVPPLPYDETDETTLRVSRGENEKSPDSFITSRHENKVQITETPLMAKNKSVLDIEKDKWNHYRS
Description: fluorescence correlation spectroscopy.

The target of data set [8] is T3, Kar9 (full-length) (S. cerevisiae, UniProt P32526 1-644).
T3 sequence (looked up): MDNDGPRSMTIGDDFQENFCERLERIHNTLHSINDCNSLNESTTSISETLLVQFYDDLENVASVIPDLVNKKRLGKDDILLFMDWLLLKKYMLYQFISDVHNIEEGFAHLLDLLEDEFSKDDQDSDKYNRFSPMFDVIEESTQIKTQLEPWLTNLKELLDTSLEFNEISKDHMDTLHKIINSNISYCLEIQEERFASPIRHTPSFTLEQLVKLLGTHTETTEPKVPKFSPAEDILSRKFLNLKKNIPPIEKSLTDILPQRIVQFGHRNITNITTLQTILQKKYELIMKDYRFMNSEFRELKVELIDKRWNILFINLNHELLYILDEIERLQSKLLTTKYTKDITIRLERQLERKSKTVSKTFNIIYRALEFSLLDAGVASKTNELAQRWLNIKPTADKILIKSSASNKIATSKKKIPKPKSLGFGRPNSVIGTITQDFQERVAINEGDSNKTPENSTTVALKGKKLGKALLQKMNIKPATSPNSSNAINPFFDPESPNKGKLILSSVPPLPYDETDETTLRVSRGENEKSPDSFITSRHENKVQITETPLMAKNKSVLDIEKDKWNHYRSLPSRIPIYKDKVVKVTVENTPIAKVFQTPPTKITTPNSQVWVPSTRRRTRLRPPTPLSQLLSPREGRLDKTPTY
The data set can be described thus: fluorescence correlation spectroscopy.

The target of data set [9] is B2. The data set can be described thus: ITC.
For data set [10], the target named is B1. Description: ITC.

The stoichiometry N is the number of molecules, sites or subunits per partner or assembly. In general, Kd refers to the equilibrium constant for the complex coming apart. Low readings indicate a tighter complex, high ones a looser complex.

In [1], “Kar9 (full-length) (from UniProt P32526 1-644) (natural protein)” yielded a stoichiometry N of 2.
Consider “Kar9N (residues 1–429) (from UniProt P32526 1-429) (domain or fragment)”, for which the stoichiometry N in data set [2] came to 2.
Regarding B1, in data set [3], the “stoichiometry N” value is 0.48.
Same read-out and setting: under B2 stands 0.74.

B3: Mal3 (unlabeled), Schizosaccharomyces pombe EB1 family member (natural protein, UniProt Q10113 1-308, looked up)
chain: MSESRQELLAWINQVTSLGLTRIEDCGKGYAMIQIFDSIYQDIPLKKVNFECNNEYQYINNWKVLQQVFLKKGIDKVVDPERLSRCKMQDNLEFVQWAKRFWDQYYPGGDYDALARRGNRGPANTRVMNSSAGATGPSRRRQVSSGSSTPSMTKSSANNNNVSSTANTAAVLRAKQAQQQITSLETQLYEVNETMFGLERERDFYFNKLREIEILVQTHLTTSPMSMENMLERIQAILYSTEDGFELPPDQPADLTTALTDHDTNNVAEEAQMTDLKDSETQRVPSAPDFVHARLQSLEVDDDENITF
Regarding B3, the binding result in data set [4] is “binds”.

B4: Bim1 (full-length) (natural protein, S. cerevisiae, UniProt P40013 1-344, looked up)
chain: MSAGIGESRTELLTWLNGLLNLNYKKIEECGTGAAYCQIMDSIYGDLPMNRVKFNATAEYEFQTNYKILQSCFSRHGIEKTVYVDKLIRCKFQDNLEFLQWLKKHWIRHKDESVYDPDARRKYRPIITNNSATKPRTVSNPTTAKRSSSTGTGSAMSGGLATRHSSLGINGSRKTSVTQGQLVAIQAELTKSQETIGSLNEEIEQYKGTVSTLEIEREFYFNKLRDIEILVHTTQDLINEGVYKFNDETITGHGNGNGGALLRFVKKVESILYATAEGFEMNDGEDELNDKNLGEHGTVPNQGGYANSNGEVNGNEGSNHDVIMQNDEGEVGVSNNLIIDEETF
As to B4, the “stoichiometry N” value in [5] is 2.

B5: C-terminally green fluorescent protein–tagged Bim1 (natural protein, S. cerevisiae, UniProt P40013 1-344, looked up)
chain: MSAGIGESRTELLTWLNGLLNLNYKKIEECGTGAAYCQIMDSIYGDLPMNRVKFNATAEYEFQTNYKILQSCFSRHGIEKTVYVDKLIRCKFQDNLEFLQWLKKHWIRHKDESVYDPDARRKYRPIITNNSATKPRTVSNPTTAKRSSSTGTGSAMSGGLATRHSSLGINGSRKTSVTQGQLVAIQAELTKSQETIGSLNEEIEQYKGTVSTLEIEREFYFNKLRDIEILVHTTQDLINEGVYKFNDETITGHGNGNGGALLRFVKKVESILYATAEGFEMNDGEDELNDKNLGEHGTVPNQGGYANSNGEVNGNEGSNHDVIMQNDEGEVGVSNNLIIDEETF
Take B5: the “stoichiometry N” value in [6] is 2. The Kd in data set [7] is roughly 100000 nM.
In the case of VFQTPPTKITTPNSQVWVPSTRRRTRLRPPTPLSQLLSPREGRLDKTPTY (domain or fragment) [Trx-Kar9-Site3], in data set [3], the dissociation constant Kd came out at 560 nM and the “stoichiometry N” value came to 0.99.

B6: GFP-tagged C-terminal domain of Bim1 (domain or fragment, S. cerevisiae, UniProt P40013 194-344, looked up)
chain: ETIGSLNEEIEQYKGTVSTLEIEREFYFNKLRDIEILVHTTQDLINEGVYKFNDETITGHGNGNGGALLRFVKKVESILYATAEGFEMNDGEDELNDKNLGEHGTVPNQGGYANSNGEVNGNEGSNHDVIMQNDEGEVGVSNNLIIDEETF
B6: the Kd in data set [8] is 4.5 nM.
For the molecule B7, the “stoichiometry N” value in data set [5] turned out to be 2. The results for the Kd in data set [9] and in [10] were 4700 nM and 9.1 nM, respectively.
